Our source for the plate clearing values is the PETadex activity labels.

Substrate in this series: BHET
To be noted: 120 h.

B1: unnamed (protein)
chain: MKTTVSRIKGLSVAAAMALASLATPALSQTSAPTSASLNATSGPLSVSTASVLLPVGFGGGTIYYPTVAGKYGVIAISPGFTATQSSIAWLGRRIATHGFVVITMNTITTLDQPDSRATQLMAALRYVLNSSGTAVRARIDSTRLAVAGHSMGGGGSLIAARDNPTLKASYPMTPWNLSTNFSTVRVPTMIIGADGDTIAPVAVHARPFYASLPSSTYKAYGELNNGTHFSPNSTNTPIGRYAVAWMKRFVDGDTRYSPFLCGAEHAAYATGWVFDRYNQNCPY
For the protein B1, the plate clearing entry is reported as “not clears the plate”.

B2: unnamed (protein)
chain: MRETSLHRSPAPALAQACTRAASRLRFAALGLAAGLLSLAAQAQINPDQRGPNPTAASLEATAGPYAVKTSKVASQSNFGGGTVYFPDSNEGPFGVIAIAPGFTEGQSVNSWWGNRLASHGFVVITASMKNVLQYPTPRAKELVAALNYVVAQSQTSGSPYFGKVDPARRGVMGHSMGGGGTLEVVRDDPTIKAAIPLAPWDLSKVFTQVTTPTLIVACEKDAIAPVNTHASTFYDSLSASLDKAFLELKGADHFCTNTSTTAARKTVLGKYGVAWMKRFIDSDTRYAPFLCGATHEAYLSASSSVISRYKSSCPY
With B2, the plate clearing result is “not clears the plate”.

B3: unnamed (protein)
chain: MHQGIHMERKNIRRRWAIGLLGMLVLAASAHAQTNPHQKGPDPTSASLNATSGSFSVATSSVSSLGAVGFGGGTVYYPTTTGTYAVLAICPGFTATQSSIAWLGRRIATHGFVVITIDTNSTLDQPPSRATQLMAALNYVTNSSSATVRSRVDASRRGVAGHSMGGGGTLYAARDNPSLKAAVPLTAWSTLKSFSSVQVPTLVVGAESDSIASVSSHSIPFYNSLSTSLDKAYAELNGATHFAPNSTNTPIGRYSVSWVKRFMDNDTRYTPFLCGAPHQSYATSLVFSDYRSTCPY
Regarding B3, the plate clearing result was “not clears the plate”.

B4: unnamed (protein)
chain: MEMFVVPKINITFNEVAVMPSSIPVKILTGVCSLLFSVSAFSFTPSPDPDPDPGPGPCQEDCDFTRGPNPTSNYLEASSGPYNVSTIGVSRSVSGFGGGTVHYPQGTTGTMGAIAIVPGFLAGESSIAWWGPRLASHGFVVITIATNSTFDQPGSRSTQLGRALDYVINLSNSSSSPISGMVDSTRVAAMGWSMGGGGTLRLASGGRLSAAIPLAPWNTGSNSFNQITTPTLILACENDSTAPVSVHASPFYNRIPSSTDKAYLEINNGSHSCANGGGANGGLLGKYGVSWMKRFIDDDARYSQFLCGPNHQANSAISEYRDTCNY
Regarding B4, the plate clearing result is “not clears the plate”.

B5: unnamed (protein)
chain: MKIKNRTACTTAAPSPARRRLAMASLAAAGLLCSFTAQAQVAVFQENFTSGLGSFTAAGSATNSSGAARLAGCYGCTDGAITSGPISTVGFSSLSLSFDRVTSGLDIGEGGIAEYSTNGSTWTALETTRATSNGRVTFNLPAAAAGQTGLRLRFRIDANLSSETYTVDNIQLTGISGDGGGTNPHAKGPAPTASLLEASTGPFTYASTNVSSLSADGYGGATIFHPTNVAGPFAAIAISPGYTGTKSTMTWWGERLASHGFVVAVIDTNSIYDQPYQRAPQLMAALRQLVTFSNTSSHPIYRKVDPNRLGVMGHSMGGGGTLIAARDNPTLKAAIPLAPWNTSTNFSSVSVPTLVVACESDSIAPVNSHASPFYNSLPSSTRKAFMEMNNGDHFCVMNGNDFTRIMGKYGVAWMKRFLDNDTRYSPFLCGAQHQADLSNSQLSEYRENCPY
On to B5, for which the plate clearing result was “clears the plate (z > 3 vs empty vector)”.

B6: unnamed (protein)
chain: MKTIERGQRRCAVGLGLLLLAAAAHAQTNPLAKGPDPTSALLNANAGPFAIASTAVPSSVAGFGGGTVYYPTAAGSYATVAICPGFTATQSSIAWIGQRMASHGFVAMTINTNSTFDQPPSRATQLMAALRYLTNSSNSTVRARVDASRLGVAGHSMGGGGTLMAARDNTTLKAAVPLTPWSQTKSFSTVRVPTLVVGAENDTVAPVAQHSIPFYTSLPASLDKAYAELNNASHFAPNSTNTAIGRYSVAWVKRFMDNDTRYEPFLCGAPHTAFATPTVFSDYRSTCPYQ
Consider B6, for which the plate clearing result is on record as “not clears the plate”.

B7: unnamed (protein)
chain: MKNTAFRKVSVVAVTFLLSVTAFAGGGGGGGGDNSGALPLPDTCNSNCGYELGPNPSLSFVQANRGPQPTTTTNVSSSVDGFGGGTIYYPTNISQEMAAISIAPGFTNTQSAVAWWGPVLASHGFVVITIDTNGRFDQPESRSRQLDAALNHLISESDRSSSPISGLVDRNRLATMGFSMGGGGSLRSASRNRLSAAVPLAPWSVGGNNFNQIGVPTMIMACENDGTAGINQHARPFYNAIPGSTDKVYLEINDGPHNCANGNNINNATLSTYGVSWMKRFLDKDRRFNQFLCGPNHEANSRISQFRDTCLF
Turning to B7, the plate clearing result is recorded as “not clears the plate”.
